Target: T1, VEGFR-3 full-length extracellular domain (Homo sapiens (Human), UniProt P35916 25-775)
T1 construct: the construct is not described; also called the full-length extracellular domain
T1 sequence: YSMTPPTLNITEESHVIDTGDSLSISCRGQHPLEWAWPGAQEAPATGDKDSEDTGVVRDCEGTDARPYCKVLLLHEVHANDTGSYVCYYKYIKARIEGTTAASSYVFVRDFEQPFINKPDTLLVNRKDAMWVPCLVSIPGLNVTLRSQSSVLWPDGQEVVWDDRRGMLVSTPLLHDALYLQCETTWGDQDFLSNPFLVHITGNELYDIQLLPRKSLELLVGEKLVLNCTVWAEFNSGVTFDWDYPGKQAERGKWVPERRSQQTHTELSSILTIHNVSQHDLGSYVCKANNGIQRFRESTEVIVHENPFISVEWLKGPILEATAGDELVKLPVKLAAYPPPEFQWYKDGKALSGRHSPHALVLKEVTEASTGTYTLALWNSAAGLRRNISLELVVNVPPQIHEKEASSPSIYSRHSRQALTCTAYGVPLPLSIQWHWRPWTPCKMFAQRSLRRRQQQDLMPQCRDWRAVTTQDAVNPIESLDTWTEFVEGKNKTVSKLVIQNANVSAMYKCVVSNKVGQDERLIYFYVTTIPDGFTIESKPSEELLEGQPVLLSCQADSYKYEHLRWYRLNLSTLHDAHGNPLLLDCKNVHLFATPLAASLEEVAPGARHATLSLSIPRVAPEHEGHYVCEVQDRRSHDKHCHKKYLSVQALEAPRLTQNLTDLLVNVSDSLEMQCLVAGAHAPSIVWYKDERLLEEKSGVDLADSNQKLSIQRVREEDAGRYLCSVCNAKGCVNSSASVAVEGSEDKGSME
Assay: not described

binding result: binds
B1: VEGF-D (ligand)
chain: FYDIETLKVIDEEWQRTQCSPRETCVEVASELGKSTNTFFKPPCVNVFRCGGCCNEESLICMNTSTSYISKQLFEISVPLTSVPELVPVKVANHTGCKCLPTAPRHPYS
notes: Bought protein; also called vascular endothelial growth factor D
